Test results taken from patent US7510715 (US Dept. of Health and Human Services, dated 2009).

B3: human CCR5 on cells (CEM.NKR-CCR5 transfectants; PM1 T cells; PBMCs; macrophages) (receptor)
chain: not shown
notes: whole, on cells; also called hCCR5

Experiments:
[1] = biological target: B3; assay: saturation binding of 125I-C-18 to CEM.NKR-CCR5 cells, 90 minutes at 4° C.
[2] = biological target: B3; assay: saturation binding of 125I-labeled human MIP-1β to CEM.NKR-CCR5 cells, 90 minutes at 4° C.
[3] = biological target: T1, human cyclophilin A (human, UniProt P62937 1-165); assay: competition with 125I-C-18 on CEM.NKR.CCR5 cells (method in paragraph 111)
T1 construct: also called recombinant human cyclophilin
T1 sequence (P62937 whole entry): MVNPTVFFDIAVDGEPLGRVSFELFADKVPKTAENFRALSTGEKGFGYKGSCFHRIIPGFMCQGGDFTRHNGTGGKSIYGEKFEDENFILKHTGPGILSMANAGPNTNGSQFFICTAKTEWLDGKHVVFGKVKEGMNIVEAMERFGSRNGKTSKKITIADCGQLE

B1: Toxoplasma gondii cyclophilin-18 (C-18), recombinant (ligand)
chain: not shown
Question: B1 was tested. Which Kd [1] did it give?
Answer: 3.65 nM

B2: human macrophage inflammatory protein 1β (MIP-1β) (ligand, UniProt P13236 24-92, looked up)
chain: APMGSDPPTACCFSYTARKLPRNFVVDYYETSSLCSQPAVVFQTKRSKQVCADPSESWVQEYVYDLELN
notes: also called MIP-1B; human MIP-1 B
Question: For B2, which Kd [2] is on record?
Answer: 0.559 nM

Question: Does B3 bind [3]?
Answer: no binding
